From patent US20060246084A1 (MICHIGAN STATE UNIVERSITY, published 2006)
Read-outs that look alike come from different tables or passages of the source.

T1: IFN-γ receptor on human cells (no IFN-γ added) (human, UniProt P15260 18-489)
T1 construct: whole, on cells; also called receptors of U937 cells and human neutrophils, monocytes, and thymocytes
T1 sequence: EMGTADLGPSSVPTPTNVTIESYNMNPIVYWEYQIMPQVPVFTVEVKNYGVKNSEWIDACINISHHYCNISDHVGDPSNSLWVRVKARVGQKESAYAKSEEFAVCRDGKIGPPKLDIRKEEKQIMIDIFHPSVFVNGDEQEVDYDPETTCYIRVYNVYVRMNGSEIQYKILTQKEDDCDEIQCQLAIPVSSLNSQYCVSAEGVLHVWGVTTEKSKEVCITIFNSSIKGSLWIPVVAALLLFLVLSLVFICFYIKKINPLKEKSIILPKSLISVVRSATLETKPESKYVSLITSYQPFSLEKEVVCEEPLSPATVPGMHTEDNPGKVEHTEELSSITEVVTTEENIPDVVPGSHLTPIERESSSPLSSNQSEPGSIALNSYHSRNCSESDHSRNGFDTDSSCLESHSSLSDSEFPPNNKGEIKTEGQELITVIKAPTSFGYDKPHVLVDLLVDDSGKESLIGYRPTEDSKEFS


Tests used:
[1] = target: T2, LcrV68-326, N-terminally truncated LcrV (Yersinia pestis, UniProt P0C7U7 68-326)
[2] = target: T2, LcrV68-326, N-terminally truncated LcrV; experiment: 125I-LcrV68-326 plus unlabelled IFN-γ on U937 cells
[3] = target: T2, LcrV68-326, N-terminally truncated LcrV; experiment: 125I-LcrV68-326 plus unlabelled IFN-γ on human monocytes
[4] = target: T2, LcrV68-326, N-terminally truncated LcrV; experiment: 125I-LcrV68-326 plus unlabelled IFN-γ on human thymocytes
[5] = target: T2, LcrV68-326, N-terminally truncated LcrV; experiment: 125I-LcrV68-326 plus unlabelled IFN-γ on human neutrophils
[6] = target: T1, IFN-γ receptor on human cells (no IFN-γ …); experiment: 125I radioligand binding to U937 cells
[7] = target: T1, IFN-γ receptor on human cells (no IFN-γ …); experiment: 125I radioligand binding to human monocytes
[8] = target: T1, IFN-γ receptor on human cells (no IFN-γ …); experiment: 125I radioligand binding to human thymocytes
[9] = target: T1, IFN-γ receptor on human cells (no IFN-γ …); experiment: 125I radioligand binding to human neutrophils

Binder | Kd [1] [nM] | Kd [2] [nM] | Kd [3] [nM] | Kd [4] [nM] | Kd [5] [nM] | Kd [6] [nM] | Kd [7] [nM] | Kd [8] [nM] | Kd [9] [nM]
IFN-γ bound to its receptor (IFN-γR-IFN-γ) on human cells (other) chain 1: QDPYVKEAENLKKYFNAGHSDVADNGTLFLGILKNWKEESDRKIMQSQIVSFYFKLFKNFKDDQSIQKSVETIKEDMNVKFFNSNKKKRDDFEKLTNYSVTDLNVQRKAIHELIQVMAELSPAAKTGKRKRSQMLFRGRRASQ chain 2: EMGTADLGPSSVPTPTNVTIESYNMNPIVYWEYQIMPQVPVFTVEVKNYGVKNSEWIDACINISHHYCNISDHVGDPSNSLWVRVKARVGQKESAYAKSEEFAVCRDGKIGPPKLDIRKEEKQIMIDIFHPSVFVNGDEQEVDYDPETTCYIRVYNVYVRMNGSEIQYKILTQKEDDCDEIQCQLAIPVSSLNSQYCVSAEGVLHVWGVTTEKSKEVCITIFNSSIKGSLWIPVVAALLLFLVLSLVFICFYIKKINPLKEKSIILPKSLISVVRSATLETKPESKYVSLITSYQPFSLEKEVVCEEPLSPATVPGMHTEDNPGKVEHTEELSSITEVVTTEENIPDVVPGSHLTPIERESSSPLSSNQSEPGSIALNSYHSRNCSESDHSRNGFDTDSSCLESHSSLSDSEFPPNNKGEIKTEGQELITVIKAPTSFGYDKPHVLVDLLVDDSGKESLIGYRPTEDSKEFS | 0.016 | 0.8 | 7.2 | 2.4 | 0.92 |  |  |  | 
recombinant human IFN-γ (ligand) QDPYVKEAENLKKYFNAGHSDVADNGTLFLGILKNWKEESDRKIMQSQIVSFYFKLFKNFKDDQSIQKSVETIKEDMNVKFFNSNKKKRDDFEKLTNYSVTDLNVQRKAIHELIQVMAELSPAAKTGKRKRSQMLFRGRRASQ |  |  |  |  |  | 0.68 | 0.84 | 0.26 | 0.93
